From EP3470428A1 (Numab Innovation AG, dated 2019)

Columns and labels:
[1] = molecular target: human PD-L1 expressed on cells (human, UniProt Q9NZQ7 19-290); experiment: cell-based or functional assay
[2] = molecular target: T1, human CD137 expressed on cells (human, UniProt Q07011 24-255); experiment: cell-based or functional assay
[3] = molecular target: T1, human CD137 expressed on cells; experiment: cell-based or functional assay; remark: listed apart in the source
[4] = molecular target: T1, human CD137 expressed on cells; experiment: cell-based or functional assay; remark: listed apart in the source
[5] = molecular target: T1, human CD137 expressed on cells; experiment: cell-based or functional assay; remark: listed apart in the source
human serum albumin = molecular target: T2, human serum albumin (human, UniProt P02768 25-609); experiment: SPR (Biacore T200); SA amine-coupled; pH 5.5
T2 construct: Amine-coupled to a CM5 chip; assay at pH 5.5; also called HSA; human SA

biotinylated human PD-L1 [6] = molecular target: T3, biotinylated human PD-L1 (human, UniProt Q9NZQ7 19-238, limits assumed, biotinylated); experiment: PD-L1/PD-1 competition ELISA with human serum albumin
T3 construct: also called biotinylated PD-L1

biotinylated human PD-L1 [7] = molecular target: T3, biotinylated human PD-L1; experiment: competition ELISA; coated human B7.1 as competitor; biotinylated PD-L1 pre-incubated with inhibitor
biotinylated human PD-L1 [8] = molecular target: T3, biotinylated human PD-L1; experiment: competition ELISA; coated human PD-1 as competitor; biotinylated human PD-L1 pre-incubated with inhibitor

IC50 (ng/ml), neutralization of PD-L1/PD-1 interaction, NFAT-luciferase reporter gene assay, with HSA [1]: 665 ng/mL | EC50 in ng/ml, CD137 activation, NFkB-luciferase Jurkat reporter assay, PD-L1 expressing CHO cells, 6h, + HSA [2]: 112 ng/mL | EC50 in ng/ml, CD137 activation, NFkB-luciferase Jurkat reporter assay, PD-L1 expressing CHO cells, 24h, + HSA [3]: 792 ng/mL | EC50 in ng/ml, CD137 activation, NFkB-luciferase Jurkat reporter assay, HCC827 with IFNy stimulation, 24h, +HSA [4]: 115 ng/mL | EC50 in ng/ml, CD137 activation, NFkB-luciferase Jurkat reporter assay, HCC827 without IFNy stimulation, 24h, +HSA [4]: 76.6 ng/mL | max. activation (%), NF-kB reporter gene, CHO-PD-L1; HSA: yes, 24h [5]: 663% | binding result (human serum albumin): binds | fold change of IC50 in presence of human serum albumin (biotinylated human PD-L1 [6]): ~2 fold | IC50 (biotinylated human PD-L1 [7]): 0.0163 µg/mL | IC50 (biotinylated human PD-L1 [8]): 0.00861 µg/mL
B1: PRO1057: 38_02_A04 sc01 scDb-i/33-03-G02 sc01 scDb-o/mxr HSA (23-13-A01-sc03, sk17sh4) (other)
chain: DIQMTQSPSSLSASVGDRVTITCQASQSINDYLAWYQQKPGKAPKLLIYKASTLASGVPSRFSGSGSGTDFTLTISSLQPEDFATYYCQQGYIITDIDNVFGTGTKVTVLGGGGGSQVQLQESGPGLVKPSETLSLTCKVSGFSFSNSYWICWIRQPPGKGLEWIGCTFVGSSDSTYYANWAKGRVTISVDSSKNQFSLKLSSVTAADTAVYYCARHPSDAVYGYANNLWGQGTLVTVSSGGGGSGGGGSGGGGSGGGGSIQMTQSPSSLSASVGDRVTITCQASQSINNVLAWYQQKPGKAPKLLIYRASTLASGVPSRFSGSGSGTDFTLTISSLQPEDFATYYCQSSYGNYGDFGTGTKVTVLGGGGGSQVQLQESGPGLVKPSETLSLTCKVSGFSFSSGYDMCWIRQPPGKGLEWIGCVVAGSVDITYYASWAKGRVTISVDSSKNQFSLKLSSVTAADTAVYYCARKDAYSDAFNLWGQGTLVTVSSGGGGSGGGGSVVMTQSPSSLSASVGDRVTITCQASQIISSRSAWYQQKPGQPPKLLIYQASKLASGVPSRFSGSGSGTDFTLTISSLQPEDFATYYCQCTYIDSNFGAFGGGTKLTVLGGGGGSGGGGSGGGGSGGGGSEVQLVESGGGLVQPGGSLRLSCAASGFSFSSSYWICWVRQAPGKGLEWVGCVFTGDGTTYYASWAKGRFTISRDNSKNTVYLQMNSLRAEDTATYFCARPVSVYYYGMDLWGQGTLVTVSS
notes: Trispecific scTriabody (scDb-scFv)
